The data set in a line: soluble on expression in E. coli; label from the status in PepcDB or PDB records.
Regarding “MTYAESTRSAVVYSSIVPPPRTPVGPPMLKDGVRKGSASQPLQPKNGANSLDYWSKSEDEKSGITCYYSRHNIQFPPPQRKMKPVKPNPVGRSTINGFTPSTSSPQNGLRYPPFPQNTPESVMSPPVGIYRNIPAMPRAKLTKDEKNGGKMNRDGGGENPKNVVWGGTSRKDDDTASTPLNSFSANASIEKKRSTARRKPRWARCFQTLFCCVTPPREIEKIQSSQRTNSTNNNHQNGRPSTPTNTGPPIQLITQVHRDGTVTGLPTTGQACQQNGSGDGVTPYDKIANDSVGTINEKPLLPPLLPQDSNKKCLVIDLDETLVHSSFKPVKNPDFVIPVEIDGVEHQVYVLKRPYVDEFLAKVGEHFECILFTASLAKYADPVADLLDKKRVFRGRLFREACVFHKGNYVKDLSRLGRNLNQTLIIDNSPASYAFHPENAVPVTTWFDDPSDTELLDILPSLEHLNGFSSIYDLYRPEEGPQSELLNHCSC”, the “soluble on expression in E. coli” value was “not soluble”.

Consider “GDTKEQRILNHVLQHAEPGNAQSVLEAIDTYCEQKEWAMNVGDKKGKIVDAVIQEHQPSVLLELGAYCGYSAVRMARLLSPGARLITIEINPDCAAITQRMVDFAGMKDKVTLVVGASQDIIPQLKKKYDVDTLDMVFLDHWKDRYLPDTLLLEECGLLRKGTVLLADNVICPGAPDFLAHVRGSSCFECTHYQSFLEYREVVDGLEKAIYKGP”, for which the “soluble on expression in E. coli” value is reported as “soluble”.

Take “MGSDKIHHHHHHMEIGQRFLVQLEETGQYFVNYQDGILIELAFDATVGKQSPAFSDLEHTAAYLEEHLRSHQTQALLLASKIHAYDASPVERITQMISIHSFFSTHRLVHPLNAYSTALLISRLEATDPQLQRTVELYRLAKKSHRFIVSPLLVSFLFLNALRRGEIATIHARIEATYDILKKRFGRSQQTYVTALLLALLPEDDQATYIAQVVQSRNLYRKHGIPLSFHGLLALLGDPRMHQTALEGLADQFRNTPHFKYRKDLVFLTAVRLYLADHPTLHQLFAPFSPSTLDDTSNLLPVYLFPVDLTDTSHATDGGMTDGGFDGGDGGGGGGD”: the “soluble on expression in E. coli” value is reported as “not soluble”.

Consider “GEKTYVKRLVKILLLGAGESGKSTFLKQMRIIHGQDFDQRAREEFRPTIYSNVIKGMRVLVDAREKLHIPWGDNKNQLHGDKLMAFDTRAPMAAQGMVETRVFLQYLPAIRALWEDSGIQNAYDRRREFQLGESVKYFLDNLDKLGVPDYIPSQQDILLARRPTKGIHEYDFEIKNVPFKMVDVGGLRSERKRWFECFDSVTSILFLVSSSEFDQVLMEDRQTNRLTESLNIFETIVNNRVFSNVSIILFLNKTDLLEEKVQVVSIKDYFLEFEGDPHCLRDVQKFLVECFRGKRRDQQQRPLYHHFTTAINTENIRLVFRDVKDTILHDNLKQLMLQ”, for which the “soluble on expression in E. coli” value is “soluble”.

For the sequence “MGHHHHHHSHMGSLPSRRKSLPSPSLSSSVQGQGPVTMEAERSKATAVALGSFPAGGPAELSLRLGEPLTIVSEDGDWWTVLSEVSGREYNIPSVHVAKVSHGWLYEGLSREKAEELLLLPGNPGGAFLIRESQTRRGSYSLSVRLSRPASWDRIRHYRIHCLDNGWLYISPRLTFPSLQALVDHYSELADDICCLLKEPCVLQRAGPLPGKDIPLPVTVQRTPLNWKELDSSLLFSEAATGEESLLSEGLRESLSFYISLNDEAVSLDDA”, the “soluble on expression in E. coli” value is given as “not soluble”.

For “MGSDKIHHHHHHMFVDTTLRDGHQSLIATRMRTEDMLPALEAFDRMNFHSMEVWGGATFDVAVRFLNENPWERLKKIREGLKNTKIQMLLRGQNLVGYRHYADDVVELFIKKVAEYGLDIIRIFDALNDERNLQKSIEESKKHGLHVQVAISYTVSPVHTLDYYLDFARKLLDMGVDSICIKDMAGLLTPKRAYELVRALKEKFGVPVEVHSHCTTGFAPLAYQAAYEAGADFFDTAISPFSMGTSQPTFETMYYAFRGNGKEDFDREALKFLVDHFTKVRMKYIEYDVGMKYPDSRIIFSQIPGGMYSNLLKQLKEQRMEHLLDKVLEEVPRVQKDLGYPPLVTPTSQIVGVQAFLNVVYGRYERITNETRNYVKGLYGRPPAPIDPELMRKILGDEKPIDCRPADLLEPELDKTRKELGILVETDEDLLIAVILGEVGKKFLRKKYEEKIGVDFNYLESLSDFTDDMPVYPV”, the “soluble on expression in E. coli” value is “not soluble”.

For the sequence “MLAIFQKAFAHPPEELNSPASHFSGKTPKLPGETLSDFLSHHQNNAFSMNFGDSAVLAYARQETSLRQRLFCGLDGIYCMFLGRLNNLCTLNRQYGLSGKNSNEAMFVIEAYRTLRDRGPYPADQVLRGLEGSFAFVVYDTQTSSVFSALSSDGGESLYWGISGDGSVVMSDDIQIIKQGCAKSFAPFPNGCMFHSETGLKSFDHPTNMMKAMPRIDSEGVLCGASFKVDACSKINSIPRRGSEANWALANSR”, the “soluble on expression in E. coli” value is recorded as “soluble”.

As for “GPGSMRISERAFMDIAIGTKAPRRIVFKLFPRKCPSAVKNFIELCSGNVSTDTYESGNRDKLISESALPQLTYKNSTFHRVEKGYLIQGGDIVTGRGTEQLSIYGGTFSAPEEVRASVFDKPGLVGTASSSPNAHGSQFFILTAKEANHLNGTCICFGQVADGLDVVQEIEQVPIDPSGFPSLKVSIVDCGVLE”, the “soluble on expression in E. coli” value is recorded as “soluble”.

“MGVSPAAPASGIRRPCYLVLSSHDFRTPRRANIHFITDQLALRGTTRFFSLRYSRLSRMKGDMRLPLDDTANTVVSHNGVDCYLWRTTVHPFNTRRSWLRPVEDAMFRWYAAHPPKQLLDWMRESDVIVFESGIAVAFIELAKRVNPAAKLVYRASDGLSTINVASYIEREFDRVAPTLDVIALVSPAMAAEVVSRDNVFHVGHGVDHNLDQLGDPSPYAEGIHAVAVGSMLFDPEFFVVASKAFPQVTFHVIGSGMGRHPGYGDNVIVYGEMKHAQTIGYIKHARFGIAPYASEQVPVYLADSSMKLLQYDFFGLPAVCPNAVVGPYKSRFGYTPGNADSVIAAITQALEAPRVRYRQCLNWSDTTDRVLDPRAYPETRLYPHPPTAAPQLSSEAALSHHHHHHH”: the “soluble on expression in E. coli” value is recorded as “soluble”.

With “LLTAAYAAKEHLIMTTPYFVPSDDLLHAICTAAQRGVDVSIILPRKNDSLLVGWASRAFFTELLAAGVKIYQFEGGLLHTKSVLVDGELSLVGTVNLDMRSLWLNFEITLVIDDAGFGSDLAAVQDDYISRSRLLDARLWLKRPLWQRIAERLFYFFSPLL”, the “soluble on expression in E. coli” value is “not soluble”.

In the case of “MIQTKQIGLQEVLSAAIKRATDEKILVSFVKQIDWMDPLLFYAAGKRISFENRCYFADPAQHVIFAGIGSVFTIATASRKRFQTARDEWDKVKEKAFVQREKYEFGTGPLLFGGFSFDQEKEKTDLWKEFDDTTFSLPTFLLTVKNEKAWLTMNTFVSATDCAETLYNEIVSLEEKIFEESKCALEGSKLTVTSKVEVDPKGWMKAIEKVQDEMKQGNVQKVVLARELKVEMDHHIDSALVLEALRIGQPDCYVFSFDYKGACFLGATPERLIRKEDEKFTSMCLAGSTSHGQSIEESKRNSNALLHDEKNLAEHGYVVNMIRSVLNEHCEFVNIPESPGLLTTKNLIHLYTPVEAKGDASLLTMVEELHPTPALGGTPRLEAMKLIRDVELLDRGLYGAPIGWIDDEGNGEFAVALRCGLLNGEKASLFAGCGIVIDSVPQLEYEETSLKFRPMLGALEELMK”, the “soluble on expression in E. coli” value is given as “not soluble”.

Take “MVEATAQETDRPRFSFSIAAREGKARTGTIEMKRGVIRTPAFMPVGTAATVKALKPETVRATGADIILGNTYHLMLRPGAERIAKLGGLHSFMGWDRPILTDSGGFQVMSLSSLTKQSEEGVTFKSHLDGSRHMLSPERSIEIQHLLGSDIVMAFDECTPYPATPSRAASSMERSMRWAKRSRDAFDSRKEQAENAALFGIQQGSVFENLRQQSADALAEIGFDGYAVGGLAGGEGQDEMFRVLDFSVPMLPDDKPHYLMGVGKPDDIVGAVERGIDMFDCVLPTRSGRNGQAFTWDGPINIRNARFSEDLKPLDSECHCAVCQKWSRAYIHHLIRAGEILGAMLMTEHNIAFYQQLMQKIRDSISEGRFSQFAQDFRARYFARNS”: the “soluble on expression in E. coli” value is “soluble”.

As to “MKRREVLQAGMALGGLAGLGRALAQGGFTLTLVHTNDTHAHLEPVELTLSGEKTPVGGVARRVALFDRVWARAKNPLFLDAGDVFQGTLYFNQYRGLADRYFMHRLRYRAMALGNHEFDLGPGPLADFLKGARFKVVSANVDASREPRLKGLFAPYAVVVVGGERVGIIGLTTPDTREISNPGPTVAFLDPYESAQKAVYELLAKGVNKIVVLSHLGYGEDLKLARRLVGVQVIVGGHSHTLLGSFPHKELSPAGPYPTVVKNPEGKDVLVVQAWEWGKVVGLLEVTFDAKGELLAYKGEALLMTPEAAPEDFFAKEALLAYAQPVMALMQQVIAEAKVDLVGERAVVRRRESNLGNLITDGMLWKTRNAGTQIALQNGGGIRASIPKGPITVGKVYEVLPFGNTLVVMDLKGKEILAALENGVSQWENTAGRFLQVSGLRYAFDLSRPAGSRVVRVEVKTEKGYVPLDLEATYRVVVNNFIANGGDGFTVLKEAQGYRVDTGFSDAESFMDYLKELKVVEAGLEGRIEVLNEPKGERPAYFAYRVPGLVGV”, the “soluble on expression in E. coli” value was “soluble”.

As to “MTTVLYYLPASPPCRSVLLLAKMIGVELDLKVLNIMEGEQLKPDFVELNPQHCIPTMDDHGLVLWESRVILSYLVSAYGKDENLYPKDFRSRAIVDQRLHFDLGTLYQRVVDYYFPTIHLGAHLDQTKKAKLAEALGWFEAMLKQYQWSAANHFTIADIALCVTVSQIEAFQFDLHPYPRVRAWLLKCKDELEGHGYKEINETGAETLAGLFRSKLKQ”, the “soluble on expression in E. coli” value is on record as “soluble”.

With “GMNQNKITAGGLEFLVRFAAPTDRLKINDLMIDTARWLKESGSTQWSDILHGFDVHNIEQRIELGEVALFETEAGALAGAMIIRKTPSDWDTDLWEDLAIDKAYYLHRIMVSRAFSGISLSKQMIYFAEKLGIEMSVPFIRLDCIESNETLNQMYVRYGFQFSGKKNGFYLYQKELSQK”, the “soluble on expression in E. coli” value is “soluble”.

For “MKSSVEKLSETRVKLNVEVPFEELKPEIDQAYKALAQQITIPGFRRGKAPRQLIDARIGRGAVLEQVINDMLPTRYQQVVEENELVVLGQPHIDITKLEDNEVVEFTAEVDVRPEITVPDFSAFAVEVPALKSNDEAIDAQIDKLRERFGELKDTKRKLKTDDFAIIDIEAAIDGEKLEEATTEGMSYQVGAGDLIDGLDTALRGLKAGESAEFTTTLKAGEHEGKEAAVTVTVQQTKERKLPELDEEFVQTASEFDTVEELRESIAEQVAEQAKAEQATAIRDEVLKAALAEATFELPEGVVEDQIHAQLHQLLNQVGGDEAALNAALEAQGTSREQFDADNRKNSEEAVRTQLFLDALAEQEQPEVSQQELTDHILFTAQSYGMDPNQFITQLQQSGQIGNLFSDVRRGKALAAAICRVSVKDDEGKAVDPSEYFGEEEESAEESE”, the “soluble on expression in E. coli” value is reported as “soluble”.

On to “MSLSLLLSILCMTQAKDRIVERPPFLAQSSSSIEIDKIVMSDTVTTVYIKAFYRPKYWIKIATGSVLKDNNGNLYPVRKGIGITLDKEFWMPESGEAEFQLTFPPIPQNVTCLDFSEGDFEGAYKIWGIQLDKKTFSKFKLPKDVTVTKADHKTTLPEPVVKYAKAILKGRILDYQKGMPNKGSLYFQDVIRDEAQEGKIRIQDDGTFYHEMNVFMVTPCMIRFPFGAVSYLLAPGETTSVVINLRENARKQSHLRQAEKPYGKEIYYGGYLAGVQQELADHPMSFSFTEGNSYEEYQQQIKKLNGKTAEEYKAQILARLPEFRKQITQSKGSPAYKEIINTDLELSAALKIIETERNLKLVHIMTNGLEGEKANKYYAETKIDIPQGYYESLQDFTYILSPKACYNSRYPILFDIIRRIGIDDKILKSLSNHTAASYLIQNPKAQMIGVSMRDLNPLNDKQKAELSTMPAAYNDMALAMNNDLLKQIEINKKKTGFTVNETGEVSNEDLFPSIISKFRGHTLLVDFWATWCGPCRSANKQILPMKEELKDKDIIYLYITGETSPLGTWKNMIPDIHGEHFRVTDEQWSYLREKFSIRGVPTYFVIDKEGNITYKQTGFPGVDTMKEQLMKALEKEGHHHHHH”, for which the “soluble on expression in E. coli” value is recorded as “soluble”.

The values above are taken from the DeepSol protein solubility set.
